Test results from patent US20170267771A1 (BIONOVION HOLDING B V, published 2017).

Columns and labels:
[1] = biological target: human CD27, full length, expressed on cells (CHO-K1.CD27, MCF-7, HEK293T, human T cells) (human) (UniProt P26842); test: cell ELISA on CHO-K1.hCD27 cells
[2] = biological target: recombinant soluble hCD27-Fc fusion protein (rhCD27/Fc chimera, R&D systems cat. no. 382-CD) (human) (UniProt P26842); test: competition cell ELISA: rhCD27-Fc (0.5 ug/ml) preincubated with antibody, binding to CHO-K1.CD70 cells
[3] = biological target: human CD27, full length, expressed on cells (CHO-K1.CD27, MCF-7, HEK293T, human T cells) (human) (UniProt P26842); test: competition cell ELISA on CHO-K1.CD27 cells; competitor recombinant CD70 fusion protein (0.5 ug/ml)
[4] = biological target: recombinant soluble hCD27-Fc fusion protein (rhCD27/Fc chimera, R&D systems cat. no. 382-CD) (human) (UniProt P26842); test: competition cell ELISA (CHO-K1.CD70 competition assay): antibody dilutions mixed with rhCD27-Fc chimera, mix put on CHO-K1.CD70 cells, bound CD27-Fc detected with anti-human Ig-HRP; blocked ligand: hCD70 on the cells
[5] = biological target: T1, recombinant soluble hCD27-Fc fusion protein (rhCD27/Fc chimera, R&D systems cat. no. 382-CD) (human, UniProt P26842 21-192); test: SPR (Biacore 2000), antibody amine-coupled to chip, rhCD27Fc chimera as analyte, 1:1 Langmuir fit
T1 construct: Bought reagent; Fc part of the bought chimera not given
T1 sequence (looked up): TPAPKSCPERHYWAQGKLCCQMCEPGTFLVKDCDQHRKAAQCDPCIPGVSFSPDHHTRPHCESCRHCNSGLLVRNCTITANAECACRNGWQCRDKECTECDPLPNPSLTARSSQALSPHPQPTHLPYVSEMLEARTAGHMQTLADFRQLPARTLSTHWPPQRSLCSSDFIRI
Method: The binding properties of hCD27.15 antibodies were characterized in more detail using label-free surface plasma resonance using Biacore 2000 equipment. Low amounts of antibodies were coupled to a CMS sensor chip using amine coupling at pH=4.5, with Rₘₐₓ not exceeding 100 RU. This will, in combination with a high flow level (30 μl/min) yield good fits to the 1:1 Langmuir binding model. A concentration series of rhCD27Fc chimera, ranging from 0.016 nM to 1 nM, was injected for 1 minute at 30 μl/min. The dissociation was monitored for 5 minutes. The running buffer is HEPES-buffered saline with 3 mM EDTA and 0.005% P20 (HBS-EP), pH 7.4. Combination plots were made by subtraction of the signal obtained at the blank flow cell, using BIAeval 3.2. The sensor grams were fitted to a 1:1 Langmuir binding model.

[6] = biological target: T1, recombinant soluble hCD27-Fc fusion …; test: competition cell ELISA: rhCD27-Fc (0.5 ug/ml) preincubated with antibody, binding to CHO-K1.CD70 cells
Method: Blocking properties of the purified antibodies were studied using two competition assays. The CHO-K1.CD70 assay works along the following principles: CHO-K1.CD70 cells were seeded in a 96 well plate at a density of 40,000 cells/well. The same amount of plates was blocked by adding 300 μl medium/well, and all plates were incubated overnight at 37° C. The following day, the medium-only containing plates were emptied by flicking the plate, and 50 μl/well rhCD27-Fc chimera (0.5 μg/ml) (R&D systems cat. no. 382-CD) was added. To these plates, 50 μl of different dilutions of purified hCD27.15 antibodies were added. After 1 hour incubation at room temperature, the 100 μl rhCD27Fc/antibody mix was transferred to the CHO-K1/CD70 plate(s) from which the medium had been removed. These plate(s) were incubated for 1 hour at room temperature and then washed 3 times with PB ST. 100 μl anti-human Ig (H+L)-HRP conjugate (1:2,500) was added to every well (Promega, cat. no. W4031) and the plates were incubated for 1 hour at 37° C. After 6 final washes with PBST TMB Stabilized Chromagen (Invitrogen, cat. no. SB02) (100 μl/well) was added and the ELISA was read out as outlined above. […] Calculated IC₅₀ values of hCD27.15 and the positive control 1A4, which represent the concentration at which half of the inhibition is observed, are presented in Table 1.

[7] = biological target: T2, mouse CD27, full length, expressed on retrovirally transduced MCF-7 cells (mouse, UniProt P41272 24-250); test: flow cytometry on MCF-7 cells transduced with mouse CD27
T2 construct: whole, on cells
T2 sequence (looked up): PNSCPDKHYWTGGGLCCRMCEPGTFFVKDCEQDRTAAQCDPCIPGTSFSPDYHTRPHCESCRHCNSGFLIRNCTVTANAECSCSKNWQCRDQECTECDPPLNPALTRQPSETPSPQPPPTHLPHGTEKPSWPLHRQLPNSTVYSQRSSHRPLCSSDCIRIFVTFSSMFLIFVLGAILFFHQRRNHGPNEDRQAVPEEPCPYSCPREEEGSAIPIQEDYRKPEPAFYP
Method: Binding of hCD27 antibodies to mouse CD27 was determined using MCF-7 breast carcinoma cells that had been retrovirally transduced to stably express the full length cDNA encoding human CD27 or mouse CD27. Empty vector-transduced cells served as a control. Binding of the antibodies was tested by flow cytometric analysis, with validated agonistic anti-hCD27 antibodies 1A4 and CLB CD27/1; and anti-mouse CD27 LG.3A10 (Gravestein et al., 1995, Int Immunol. 7:551-7) as positive controls. These commercially available anti-hCD27 antibodies, which have been reported to harbor agonistic activities, were obtained as described in Table 2.

[8] = biological target: T3, human CD27, full length, expressed on cells (CHO-K1.CD27, MCF-7, HEK293T, human T cells) (human, UniProt P26842 20-260); test: cell ELISA on CHO-K1.hCD27 cells
T3 construct: whole, on cells; Full length cDNA of hCD27 in pCI-neo (CHO-K1), a retroviral vector (MCF-7) or pcDNA3 (HEK293T); Also stands for native CD27 on human T cells in the functional rows; also called hCD27; CHO-K1.hCD27
T3 sequence (looked up): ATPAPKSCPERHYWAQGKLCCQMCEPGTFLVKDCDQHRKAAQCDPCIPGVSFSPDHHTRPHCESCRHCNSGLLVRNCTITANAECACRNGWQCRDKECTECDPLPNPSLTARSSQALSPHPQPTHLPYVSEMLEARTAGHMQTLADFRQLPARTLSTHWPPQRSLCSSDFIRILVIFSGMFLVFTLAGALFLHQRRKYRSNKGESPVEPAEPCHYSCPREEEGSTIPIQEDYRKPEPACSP
Method: Cell-based ELISA experiments using purified hCD27 antibodies were performed to determine binding activities of hCD27 to cellularly expressed hCD27. In this cell-ELISA, all incubation steps were followed by a wash step with PEST (PBS with 0.01% Tween 20). CHO-K1.hCD27 cells were seeded (40,000 cells/well) in tissue culture plates and incubated overnight at 37° C. The next day, culture medium was removed and cells were incubated for one hour with (dilutions of) purified antibodies at 37° C. Next, cells were washed with PBST and incubated for one hour at 37° C. with 1:1,000 goat-anti-mouse IgG-HRP (Southern Biotechnology, # 1030-05). Subsequently, cells were washed 6 times with PBST and anti-hCD27 immunoreactivity was visualized with 100 μl TMB Stabilized Chromagen (Invitrogen, cat. no. SB02). Reactions were stopped with 100 μl 0.5 M […] and absorbances were read at […] and 620 nm. […] Calculated EC₅₀, representing the concentration at which 50% of the total binding signal is observed are represented in Table 1.

[9] = biological target: T3, human CD27, full length, expressed on …; test: competition cell ELISA on CHO-K1.CD27 cells; competitor recombinant CD70 fusion protein (0.5 ug/ml)
Method: The CHO-K1.CD27 assay works along the following principles: CHO-K1.CD27 cells were seeded (40,000 cells/well) in a 96-well plate and incubated overnight at 37° C. After medium removal, 50 μl recombinant mouse CD70 fusion Protein (Fc-mCD70) (0.5 μg/ml) and 50 μl of different dilutions of purified anti-hCD27 antibodies were added. […] A cDNA construct encoding this fusion protein was constructed as described by Rowley and Al-Shamkhani, 2004, J Immunol 15:172:6039-46 and used to produce Fc-mCD70 protein in 293T human embryonic kidney cells. The protein was purified by affinity chromatography on Protein A Sepharose (GE Health Care).

anti-hCD27, clone 1A4 (Beckman Coulter, cat. no. IM2034) (antibody)
EC50 [1]: 0.033 µg/mL
IC50 [2]: 0.37 µg/mL
IC50 [3]: 0.0937 µg/mL

anti-hCD27, clone 57703 (R&D systems, cat. no. MAB382) (antibody)
IC50 (read off the curve) [4]: 200 ng/mL

B1: monoclonal antibody hCD27.15 (hybridoma hCD27.15, ATCC PTA-11008) (antibody, mouse IgG1, V domains shown)
VH: EVRLQQSGADLVKPGASVKLSCTASGFIIKATYMHWVRQRPEQGLEWIGRIDPANGETKYDPKFQVKATITADTSSSTAYLQLNSLTSDDTAVYYCARYAWYFDVWGAGTTVTVSS
VL: DIQMTQSPASLSASVGDTVTITCRASENIYSFLAWYHQKQGRSPQLLVYHAKTLAEGVPSRFSGSGSGTQFSLKINSLQAEDFGSYYCQHYYGSPLTFGAGTKLEVK
notes: Mouse antibody purified from hybridoma; VH is joined to a mouse IgG1 constant region and VL to the kappa constant region; also called hCD27.15 mAb; anti-hCD27 antibody hCD27.15
Kd [5]: 122 nM
IC50 [6]: 1.55 µg/mL
binding result [7]: no binding
EC50 [8]: 0.686 µg/mL
IC50 [9]: 0.864 µg/mL
